Data from the DeepSol protein solubility set.

test: soluble on expression in E. coli; label from the status in PepcDB or PDB records

**Q.** Which “soluble on expression in E. coli” value does the source give for “MKFPGPLENQRLSFLLEKAITREAQMWKVNVRKMPSNQNVSPSQRDEVIQWLAKLKYQFNLYPETFALASSLLDRFLATVKAHPKYLSCIAISCFFLAAKTVEEDERIPVLKVLARDSFCGCSSSEILRMERIILDKLNWDLHTATPLDFLHIFHAIAVSTRPQLLFSLPKLSPSQHLAVLTKQLLHCMACNQLLQFRGSMLALAMVSLEMEKLIPDWLSLTIELLQKAQMDSSQLIHCRELVAHHLSTLQSSLPLNSVYVYRPLKHTLVTCDKGVFRLHPSSVPGPDFSKDNSKPEVPVRGTAAFYHHLPAASGCKQTSTKRKVEEMEVDDFYDGIKRLYNEDNVSENVGSVCGTDLSRQEGHASPCPPLQPVSVM” here?
**A.** not soluble

**Q.** Which “soluble on expression in E. coli” value does the source give for “MGSDKIHHHHHHMDVLQKEIDEVYATHPTAHEALDNGIVEQHQQFVRSLTEVNGGCAVISDLSNRKSYVTVHPWANFLGLTPEEAALSVIDSMDEDCIYRRIHPEDLVEKRLMEYKFFQKTFSMSPGERLKYRGRCRLRMMNEKGVYQYIDNLVQIMQNTPAGNVWLIFCLYSLSADQRPEQGIYATITQMERGEVETLSLSEEHRNILSEREKEILRCIRKGLSSKEIAATLYISVNTVNRHRQNILEKLSVGNSIEACRAAELMKLL” here?
**A.** not soluble

**Q.** For “SAAPPGEYFSVGSQVSCRTCQEQRLQGEVVAFDYQSKMLALKCPSSSGKPNHADILLINLQYVSEVEIINDRTETPRPLASLNVSKLASKARTEKEEKLSQAYAISAGVSLEGQQLFQTIHKTIKDCKWQEKNIVVMEEVVITPPYQVENCKGKEGSALSHVRKIVEKHFRDVESQKILQRSQAQQPQKEAALSS”, which “soluble on expression in E. coli” value is on record?
**A.** soluble

**Q.** Which “soluble on expression in E. coli” value does the source give for “MPHPNRTFKIVIAPDSFKSTATTSQAAAFIAEGIQAAVQSNECEGINVEITTVPMADGGEGTSSCFEGIDITLPTTDANGRLTEATYRFDPQSETAYIDVAAASGLPAVEDELRPLTADTYGTGVLIADAQTRGARR” here?
**A.** not soluble

**Q.** Which “soluble on expression in E. coli” value does the source give for “MGMIGYFAEIDSEKINQLLESTEKPLMDNIHDTLSGLRRLDIDKRWDFLHFGLTGTSAFDPAKNDPLSRAVLGEHSLEDGIDGFLGLTWNQELAATIDRLESLDRNELRKQFSIKRLNEMEIYPGVTFSEELEGQLFASIMLDMEKLISAYRRMLRQGNHALTVIVG” here?
**A.** soluble

**Q.** For “MRPTITALVLTYNGERLLDRCLGSLAFCDRILVVDSFSTDATVAIAQAAGAEVLQRKWEGPGPQFAFALEKISDGWIVSLDQDEICSEELRDSILAATAADSGEAGYWIPRRSWYFDRFLKHSGWYPDHLLRLFRAGRMRVEVSGAHYSFHPDGETGTLTGDILHYPYESFRQHLDKVNDYAQKGADDLRAKGKRGGLCAGLCHGAGRFIRIYIIKRGFLDGRAGFINAIHGAFYAFLKHLRIEEGDWGRPFEHKLEHHHHHH”, which “soluble on expression in E. coli” value is on record?
**A.** soluble

**Q.** Which “soluble on expression in E. coli” value does the source give for “QGTDQYTILANRIANAVEQYRSQRALDASRERLSLFIDKSPLGVIEWDESFEVVQVNEKGEEILRRGESALAGKGFETLVPDSALDAVEETITALQEGSGGYYTVLDIETGDGEEIVCEWHNRIIREDGETVAIFSQFQEIT” here?
**A.** not soluble

**Q.** With “TLAQPVTIREIAEPPKIRLPRHLRQTYIRKVGEQLNLVVPFQGKPRPQVVWTKGGAPLDTSRVHVRTSDFDTVFFVRQAARSDSGEYELSVQIENMKDTATIRIRVVEKAG” as the sequence, how does the “soluble on expression in E. coli” value read?
**A.** soluble

**Q.** Which “soluble on expression in E. coli” value does the source give for “MSGGQQERHVLILNTVGGRRAIALEAAAYSLGRDESNAIVIDFETVSRQHAILLRVPVPGTTSYRYRLVDGNANGKPSTNGTFVNGKRISSHELQHGDVILFGRKAKASYLLLSMADTEFSQYLQSIAFQSIKSDLRGAKETLVGMELSGELRRTPNRELVAAGATQLHPELEHHHHHH” here?
**A.** soluble

**Q.** With “GAMAGMNIKDRTSEFQQSVLSYKKRNKNFREQQRERLQEKESENFANNTT” as the sequence, how does the “soluble on expression in E. coli” value read?
**A.** soluble

**Q.** For “AIALWKLVENVKYEDIYEDRHDGVPSHSSRLSQLGSVSQGPYSSAPPLSHTPSSDFQPPYFPPPYQPLPYHQSQDPYSHVSDPYSLNALHQPQQHPWGSRQRQDLQGTESGGLLPQPRASLPQLSGLDPRRDYSTVRRPDVLLHSTHHGLEAGMGDGLSLHGLAHGMDDVQAVEDLNGAMNILDRTPLGNSRPSPILEPGIQSCLSHFSFITHGFGSPAICAALTALQNYLTEALKGLDKMFLNNPTPNRHTPADGSKGGEKEEKHRK”, which “soluble on expression in E. coli” value is on record?
**A.** soluble

**Q.** For “FFAAITAAERRCWIASPYFVPDLDILAALKHAALRGVDVRLLVPDEADHTIPWLAAFAYFDEVREAGVRVMRYTDGFLHQKVFVVDDTIAAVGTTNLDNRSFRLNFEAMALFFDATVAGQVTAMLEHDFASSTELTRSLAAQPVFIRYGAPLARLFAPIL”, which “soluble on expression in E. coli” value is on record?
**A.** not soluble

**Q.** With “MIMGLENLKPAKGSVKKIKRVGRGQGSGMGKTATRGGKGQTARTGYKAKRGFEGGQQPLQRRLPKIGFRTKDSHIYSINVEKNEAIKNLEEITFSSLRALHHFPLYIEGVKLIGKDAKNLASKIKDERIKTSGQKLEHHHHHH” as the sequence, how does the “soluble on expression in E. coli” value read?
**A.** soluble

**Q.** Which “soluble on expression in E. coli” value does the source give for “MGHHHHHHSHMFLVLKKKHICHRNLVNILQLNMYVCCLDKCNHCKHLYDLGFCFYFEMGAFLFTSSLKTKNCFCKEMRFFLNNKKCLADSLLNKNLPNFLIDYFKPFVTWYSFASQFRFRVITFPLFLRKMKKVILLSEGERHSFIFFFFFFFFL” here?
**A.** not soluble

**Q.** For “MDSQAQVLILLLLWVSGTCGDIVMSQSPSSLAVSAGEKVTMSCKSSQSLLNSRTRKNYLAWYQQKPGQSPKLLIYWASTRESGVPDRFTGSGSGTDFTLTISSVQAEDLAVYYCKQSYNLYTFGGGTKLEIKRADAAPTVSIFPPSSEQLTSGGASVVCFLNNFYPKDINVKWKIDGSERQNGVLNSWTDQDSKDSTYSMSSTLTLTKDEYERHNSYTCEATHKTSTSPIVKSFNRNEC”, which “soluble on expression in E. coli” value is on record?
**A.** soluble

**Q.** For “MEVGMIPRVYLGHEWFGAERILSEYQVPEDCGAQVLFLGIPRNAPEDGGNIEALEYEAYPEMAIKEMEKIRQETIEKFGVKEVFIHHRLGLVKIGEPSFLVLAVGGHREETFKACRYAVDETKKRVPIWKKEIFKEGKGEWVLGEKKNASGQTK”, which “soluble on expression in E. coli” value is on record?
**A.** soluble

**Q.** For “MSTTIQYNSNYADYSISSYLREWANNFGDIDQAPAETKDRGSFSGSSTLFSGTQYAIGSSHSNPEGMIAEGDLKYSFMPQHTFHGQIDTLQFGKDLATNAGGPSAGKHLEKIDITFNELDLSGEFDSGKSMTENHQGDMHKSVRGLMKGNPDPMLEVMKAKGINVDTAFKDLSIASQYPDSGYMSDAPMVDTVGVVDCHDMLLAA”, which “soluble on expression in E. coli” value is on record?
**A.** not soluble

**Q.** With “MSLTLTLKETLLASPGVLFLDDITIEKVESEKNLMILLPGLEYLVTRDLLRTKFPEYDFTGPENVRITVEGYSSLKNAVFEEIGKKAEAKDFEAFVVKTFGTLPEKFEPQTIRVTKISKNLFSVFLRFPDTYVTLNMLLRKERNVVVLKRNINVGDVIKEEDVRLEKRNVFEIYGEPFFDVSEVVGKISRRYLKEGTVLTADMVKDPPDVVKGQVVPAYVDMGSIKVTTFVEVLENGYLGETVRAMNVESRKYVFGRVERGPVLRILEVVEGHHHHHH” as the sequence, how does the “soluble on expression in E. coli” value read?
**A.** soluble

**Q.** Which “soluble on expression in E. coli” value does the source give for “MSLTTAHNIDLPTVLAERLTTAHPDVLRELLATFIHTLMGAEADALCGAGYGERSTERTNSRNGYRHRQFDTRAGSLDLAIPKLRHGSYFPDWLLERRKRAERALTTVVATCYLLGVSTRRMDKLVETLGITSLSKSQVSVMAKELDAAVEAFRTRPLDAGPYTFVAADALVLKVREGGRVVNVHALIAVGVNAEGHREILGIDVSTAEDGAGWLTFWRSLTARGLSGVKLVTSDAHAGLVAAIGATLPGAAWQRCRTHYTTNLMAVTPKSSWPWVRTLLHSVFDQPDAESVAAQYDRIIEALADKLPKVADHLEEARADLLAFTAFPKQIWRQIWSNNPLSVNRPSGDTVQAAAEGHHHHHH” here?
**A.** soluble

**Q.** For “SRLLKTDLLEDVFNVENESFMQETELKENEYSVNLRTRFWFRGRAYDGWINLVNPFRATMVLGTPGSGKSYAIINQYIKQTIEKGYSLFLYDFKYPDLSEIAYNHLLAHLDGYKVKPKFYVINFDNPRESHRCNPIHPDFMTDISDAYESAYTIMLNLNRTWISKQGDFFVESPIILLASIIWYLKIYKNGKYCTFPHAIEFLNRKYADIFPILTSYPELENYLSPFMDAWESSAVEQLQGQIASAKIPLSRMISPALYWVMTADDFTLDINNPEEPKVLVVGNNPDRQGIYGAALGLYNSRIVKLINKKKRLKSAVIIDELPTIYMRGLDNLIATARSNKVAVMLGFQDFSQLKRDYGDKESAVICNTVGNVFAGQVVAETAKTLSERFGKVLQKRQNMTINRNETSVSINTQMDSLIPASKISNLTQGMFVGAVADNFDERIEQKIFHAEIVVDNEQVRRETARYVKIPQIIDFTDKDGNDTMQQQIDANYYRIKSEVRQIVADEIGRIKADPELSHLIKDK”, which “soluble on expression in E. coli” value is on record?
**A.** not soluble

**Q.** For “MIMFNYQQTSQSCVKCGKCIPSCTIYNIHPDEVTSPRGFIDLLGAYQRGELELDKNAKDIFEKCFLCTNCTYVCPNLLPTDQVIENVRAEIAQKFGIAWFKRAYFFLLRNRWLEHHHHHH”, which “soluble on expression in E. coli” value is on record?
**A.** soluble

**Q.** With “SMVLLTMIARVADGLPLAASMQEDEQSGRDLQQYQSQAKQLFRKLNEQSPTRCTLEAGAMTFHYIIEQGVCYLVLCEAAFPKKLAFAYLEDLHSEFDEQHGKKVPTVSRPYSFIEFDTFIQKTKKLYIDSRARRNLGSINTELQDVQRIMVANIEEVLQRGEALSALDSKANNLSSLSKKYRQDAKYLNMRSTYAK” as the sequence, how does the “soluble on expression in E. coli” value read?
**A.** soluble

**Q.** With “MGSDKIHHHHHHMIGNRNSTSLEIAMTEIDDITGFIPQPGPIALVLGATGGVGGAVARALAGRGYHVRALHRDAARMAAKQKERQPALEPVLEWVQGDAMNRDDVIYAAKDASVILHGVNPPGYRNWGTLVLPMIDNTIAAARASGACILMPGTIYNYGPDAFPLLNEESPQHPRTVKGEIRVELERRLEQAAGEGVRVILVRAGDFFGPEAGNNWFAQGLITPGKPVTQVNLPGKPGVSHSWAYLPDVAETFIRLLERVPDMPAFARFHMQGHVDTDGYAMAQAIQRVSGSDSVRFKRFAWWMVPLLSPILPVFRELLEMRYLWREPIALDNRRLVEVLGEEPRTRLDVAVATTLKSLKCLQTSAVHPDGSRSMASETAPQ” as the sequence, how does the “soluble on expression in E. coli” value read?
**A.** not soluble

**Q.** For “MGSDKIHHHHHHMGIRAGESGNSLSKALLEIEKEQPAPCYLLYGDAEYEISDAFTKIIDALLSPEDQALNLFVLDGEDEDPERIGENLMTPPLLPGRKVVAVRRTQLFSSRKTLKDLVKRIREQLNGKPQQAAKTFMTFLSLAGWNLEDFKGDGWKAISDKDWQTTVEGDAGEDRIKWLPQVVEVCVDLGLKGRSATGGGTDHLEAILRDGLPAGNVLLLTAESVDKRKKLFKTISELGRVLPFVVEKGEARQKNTLMDSARDLLATRGKRMSSGAWEVLGRKTGFQLRNSMAALEKLITYTGERKTIEVSDVEEVISRTREDKVFDLTAALAEKNLKGALSVLRSLREQGIHSLVILSMIVREMRLLLHARQLRNEGALPGYQPRMDYGRFQKSIYPTVKGWAGQAGDVHIELADSHPYVVFNILRNSENFSEKRLKRHLEDLLAMDLAMKSTAKDADLMLERFLIDVCRP”, which “soluble on expression in E. coli” value is on record?
**A.** not soluble

**Q.** Which “soluble on expression in E. coli” value does the source give for “AHHHHHHGSPTWEELYKNAIEKAIKSVPKVKGVLLGYNTNIDAIKYLDSKDLEERIIKAGKEEVIKYSEELPDKINTVSQLLGSILWSIRRGKAAELFVESCPVRFYMKRWGWNELRMGGQAGIMANLLGGVYGVPVIVHVPQLSRLQANLFLDGPIYVPTLENGEVKLIHPKEFSGDEENCIHYIYEFPRGFRVFEFEAPRENRFIGSADDYNTTLFIREEFRESFSEVIKNVQLAILSGLQALTKENYKEPFEIVKSNLEVLNEREIPVHLEFAFTPDEKVREEILNVLGMFYSVGLNEVELASIMEILGEKKLAKELLAHDPVDPIAVTEAMLKLAKKTGVKRIHFHTYGYYLALTEYKGEHVRDALLFAALAAAAKAMKGNITSLEEIREATSVPVNEKATQVEEKLRAEYGIKEGIGEVEGYQIAFIPTKIVAKPKSTVGIGDTISSSAFIGEFSFTL” here?
**A.** not soluble
